5 molecules from paper PMC12519263, “Antifibrotic Efficacy of a Nintedanib–Peptide Conjugate and Diagnostic Potential of a Fluorescent Companion Probe Targeting αVβ6 Integrin in Idiopathic Pulmonary Fibrosis” (ACS Pharmacology & Translational Science, 2025) can be followed below.

Data set [1] in a line: In vitro stability in mouse plasma (LC-MS/MS). The following applies: 80% v/v mouse plasma in 100 mM PBS pH 7.4, 37 °C, plasma pre-incubated 10 min, 1% DMSO, LC-MS/MS (MRM, ESI+), vs t = 0, mean ± SD (n=3), read-out: % Compound at 6h mouse plasma. Type of data set: in vitro ADME. As to the method:
(§1) 2. In vitro plasma stability of compounds 1 and 2
(§2) Stability of compounds 1 and 2 in mouse and human plasma was evaluated by incubating 5 μL of a 100 µM solution of each compound in DMSO with 400 μL of plasma and 95 μL of 100 mM phosphate buffered saline (PBS) pH 7.4 (final compound concentration: 1 µM; final DMSO concentration: 1%). Plasma samples were pre-incubated at 37 °C for 10 min before adding the compound. At different time points, an aliquot was withdrawn from each sample and deproteinized by addition of 100 μL of ice-cold acetonitrile containing the structurally related compound 13 as internal standard (Table S1). After a centrifugation step (14,000 g, 10 min, 4 °C), the supernatants were analyzed by LC-MS/MS. A multiple reaction monitoring (MRM) acquisition method in positive ion mode (ESI+) was set up to monitor the remaining percentages of test compound at different time points, if compared to time t = 0.
(§3) LC-MS/MS Analytical Method. A Thermo TSQ Quantum triple-quadrupole mass spectrometer (Thermo Italia, Milan, Italy) equipped with a heated electrospray (H-ESI) ion source and coupled to a Thermo Accela UHPLC system was employed for LC-MS/MS data acquisition and analysis. The LC separation occurred on a Waters XSelect HSS T3 column (3.5 μm, 2.1 × 100 mm; Waters, Milford, USA) at room temperature. […]

The nature of data set [2]: In vitro stability in human plasma (LC-MS/MS). The class given is in vitro ADME. The following applies: 80% v/v human plasma in 100 mM PBS pH 7.4, 37 °C, plasma pre-incubated 10 min, 1% DMSO, LC-MS/MS (MRM, ESI+), vs t = 0, mean ± SD (n=3), read-out: % Compound at 6h human plasma. The procedure:
as §1, §2, §3

Another data set has as its target T1, human αvβ6 integrin (Homo sapiens, UniProt P06756+P18564, DEL708-788).
T1 construct: purchased R&D Systems
Kind of data set: Competitive solid-phase αvβ6 integrin binding assay to coated LAP. The following applies: competitive solid-phase binding to coated LAP (0.4 μg/mL); soluble human αvβ6 0.25 μg/mL; compounds 10^-5–10^-10 M, 1 h room temperature; absorbance 450 nm; mean ± SD of three independent experiments in triplicate. The procedure: The ability of conjugate 1 to bind to the human, isolated αvβ6 integrin receptor was evaluated by a competitive solid-phase ligand-binding assay on purified αvβ6 integrin in the presence of increasing concentrations (10^–10–10^–5 M) of 1. To better evaluate the impact of the linker and nintedanib moieties on the binding capability of 1, the results (Table ) were compared to those obtained for free cyclopeptide 3 and previously reported cyclopeptide 11 (the deprotected version of prot-11, Scheme ). Binding curves are provided in Figure S3, Supporting Information.
The affinity of integrin ligands 1, 3, and 11 was determined by the solid-phase binding assay using soluble αvβ6 integrin and coated LAP, according to a previously reported protocol. Flat-bottom 96-well plates (Corning Costar, Segrate, Milan, Italy) were coated by passive adsorption with LAP (TGF-β; 0.4 μg/mL; R&D Systems) in carbonate buffer (15 mM Na2CO3 and 35 mM NaHCO3, pH 9.6; 100 μL/well) overnight at 4 °C. After three washes with PBS-T buffer (phosphate-buffered saline–Tween20, 137 mM NaCl, 2.7 mM KCl, 10 mM Na2HPO4, 2 mM KH2PO4, and 0.01% Tween20, pH 7.4; 200 μL/well), wells were blocked with TS-B buffer (Tris–saline/BSA buffer; 20 mM Tris–HCl, 150 mM NaCl, 1 mM CaCl2, 1 mM MgCl2, 1 mM MnCl2, pH 7.5, and 1% BSA; 150 μL/well) for 1 h at room temperature. After washing the assay plate three times with PBS-T (200 μL/well), soluble human αvβ6 integrin (0.25 μg/mL, R&D Systems) was incubated with compounds and tested at different concentrations (10^–5–10^–10 M), in the coated wells for 1 h at room temperature. The plate was washed three times with PBS-T buffer, and anti-αv primary antibody (1:500 dilution, 100 μL/well; mouse antihuman MAB1978, Merck Life Science, Milan, Italy) was added and incubated for 1 h at room temperature. […] The reaction was stopped with 1 M H2SO4 (50 μL/well), and the absorbance was measured at 450 nm with an EnSpire Multimode Plate Reader (PerkinElmer, Waltham, MA). […] Data analysis and IC50 affinity values were calculated using GraphPad Prism 10.4.1 (GraphPad Software, San Diego, CA). […]

The target of data set [3] is soluble human αvβ6 integrin (human) (UniProt P06756). As to the kind of experiment: ELISA; competitive solid-phase binding assay: LAP (0.4 μg/mL) coated in carbonate buffer pH 9.6 overnight at 4 °C, blocked with TS-B buffer (20 mM Tris–HCl, 150 mM NaCl, 1 mM CaCl2, 1 mM MgCl2, 1 mM MnCl2, pH 7.5, 1% BSA); soluble human αvβ6 (0.25 μg/mL) incubated with compounds (10^-5–10^-10 M) in the coated wells 1 h at room temperature; bound integrin detected with anti-αv antibody and HRP secondary.

Numbered stars: 1 amine (or outer) side, 2 acyl side, 3 side chain; on linkers, the order of the positions; unused ones are H or OH. Square brackets hold non-standard residues; d marks the D form. Peptide text beside a SMILES is read from it. X1 = [N-]=[N+]=NCCCCN1C[C@@H](N[*:1])C[C@H]1C(=O)[*:2]

For `CC(C)C[C@@H]1NC(=O)[C@H](CC(=O)O)NC(=O)CNC(=O)[C@H](CCCNC(=N)N)NC(=O)[C@H](CC(C)C)NC(=O)[C@@H]2C[C@@H](CN2C(=O)CCCCCNC(=O)CCc2ccc(OC3=C(/C=C/C4=[N+](CCC[N+](C)(C)C)c5ccc(S(=O)(=O)O)cc5C4(C)C)CCC/C3=C\C=C3\N(CCC[N+](C)(C)C)c4ccc(S(=O)(=O)O)cc4C3(C)C)cc2)NC1=O` [compound 2], the remaining at 6 h worked out at 59 ± 3% in data set [1] and 51 ± 3% in data set [2].

`COC(=O)c1ccc2c(c1)NC(=O)/C2=C(\Nc1ccc(N(C)C(=O)CN2CCN(CCOCCOCCOCc3cn(CCCCN4C[C@@H]5C[C@H]4C(=O)N[C@@H](CC(C)C)C(=O)N[C@@H](CCCNC(=N)N)C(=O)NCC(=O)N[C@@H](CC(=O)O)C(=O)N[C@@H](CC(C)C)C(=O)N5)nn3)CC2)cc1)c1ccccc1` [compound 1] displayed a 50% inhibitory concentration (IC50) on human αvβ6 integrin of 1.95 ± 0.16 nM. The remaining at 6 h in data set [1] was found to be 95 ± 4%; in data set [2], 96 ± 5%.

On human αvβ6 integrin, `CC(C)C[C@@H]1NC(=O)[C@H](CC(=O)O)NC(=O)CNC(=O)[C@H](CCCNC(=N)N)NC(=O)[C@H](CC(C)C)NC(=O)[C@@H]2C[C@@H](CN2CCCCN=[N+]=[N-])NC1=O` [compound 3] (cyclo(RGDL[X1]L)) returned a half-maximal inhibitory concentration (IC50) of 4.52 ± 0.68 nM.

In the case of `CC(C)C[C@@H]1NC(=O)[C@H](CC(=O)O)NC(=O)CNC(=O)[C@H](CCCNC(=N)N)NC(=O)[C@H](CC(C)C)NC(=O)[C@@H]2C[C@@H](CN2C(=O)CCCCCN=[N+]=[N-])NC1=O` [compound 11], on human αvβ6 integrin, the half-maximal inhibitory concentration (IC50) turned out to be 30.3 ± 7.6 nM.

On to c(phg-isoDGRk) (peptide), for which the IC50 in data set [3] stood at 24.7 nM.

Broadly, the IC50 is the concentration that gives 50% inhibition.
